Measurements reported in patent US20250304693A1 (HIFIBIO, published 2025).
Values belong to the binder of their own block, whether it stands above or below them.

Experiments:
[1] = target: T1, human BTLA (B- and T-lymphocyte attenuator) on cells (human, UniProt Q7Z6A9 31-289); assay: cell-based or functional assay
[2] = target: T1, human BTLA (B- and T-lymphocyte …); assay: FACS on HEK293T.hBTLA cells, AF647 anti-human IgG Fc detection
Procedure: (§1) In FIGS. 11A and 11B, HEK293 overexpressing human BTLA (FIG. 11A) and Expi293 cells overexpressing cynomolgus BTLA (FIG. 11B) were incubated with different concentrations of selected HFB6-3 humanized variants with cysteine mutations. Anti-BTLA antibodies binding to target cells were quantified with an AF647-conjugated anti-human IgG Fc 2nd antibody by FACS. HFB6-3hz24-hG4P-C109A, HFB6-3hz25-hG4P-C109A, HFB6-3hz24-hG4P-C109S and HFB6-3hz25-hG4P-C109S bound to human BTLA and cyno BTLA with single digit nM and sub-nM EC₅₀, similar as parental HFB6-3 (FIGS. 11A and 11B and Table 13).

cynomolgus BTLA on cells [3] = target: T2, cynomolgus BTLA on cells (cynomolgus, UniProt A0A2K5W7M7 31-289); assay: FACS on Expi293.cynoBTLA cells, AF647 anti-human IgG Fc detection
T2 construct: whole, on cells; Overexpressed on Expi293 cells; also called cyno BTLA; CynoBTLA
T2 sequence: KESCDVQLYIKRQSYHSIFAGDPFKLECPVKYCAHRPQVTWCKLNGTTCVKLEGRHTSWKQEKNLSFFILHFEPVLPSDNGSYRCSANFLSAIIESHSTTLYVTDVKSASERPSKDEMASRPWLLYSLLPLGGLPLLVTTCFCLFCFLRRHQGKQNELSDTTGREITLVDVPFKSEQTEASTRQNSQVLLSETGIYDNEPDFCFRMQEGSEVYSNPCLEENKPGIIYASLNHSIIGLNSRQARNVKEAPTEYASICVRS
Procedure: as §1

[4] = target: T1, human BTLA (B- and T-lymphocyte …); assay: FACS competition on HEK293T.hBTLA cells; competitor hrHVEM-His-DL650
Procedure: In FIG. 12A, recombinant HVEM soluble protein was conjugated with DyLight 650 (DL650) fluorophore. HEK293 cells overexpressing hBTLA (HEK293.BTLA) were preincubated with increasing concentrations of selected HFB6-3 humanized variants with cysteine mutants or parental HFB6-3 at 4° C. for 30 minutes and then with DL650-conjugated HVEM for additional 30 minutes. After washing, soluble HVEM remaining associated with BTLA on HEK293.BTLA cells was measured by FACS.

[5] = target: T1, human BTLA (B- and T-lymphocyte …); assay: cell-based or functional assay; remark: listed apart in the source
[6] = target: T1, human BTLA (B- and T-lymphocyte …); assay: FACS competition on HEK293.BTLA cells; competitor DL650-conjugated soluble HVEM
Procedure: In FIG. 3A, recombinant HVEM soluble protein was conjugated with DyLight 650 (DL650) fluorophore. HEK293 cells overexpressing hBTLA (HEK293.BTLA) were preincubated with increasing concentrations of HFB6-2 and HFB6-3 at 4° C. for 30 minutes and then with DL650-conjugated HVEM for an additional 30 minutes. After washing, soluble HVEM remaining associated with BTLA on HEK293.BTLA cells was measured by FACS. HFB6-2 and HFB6-3 blocked soluble HVEM and cellular BTLA interaction with single digit nM IC₅₀.

[7] = target: T1, human BTLA (B- and T-lymphocyte …); assay: FACS on HEK293 cells overexpressing human BTLA, AF647 anti-human IgG Fc detection
Procedure: (§2) In FIGS. 2A-2B, HEK293 cells overexpressing human BTLA and Expi293 cells overexpressing cynomolgus BTLA were incubated with different concentrations of anti-BTLA parental antibodies. Anti-BTLA antibody binding to target cells was quantified with an AF647-conjugated anti-human IgG Fc 2nd antibody by FACS.

cynomolgus BTLA on cells [8] = target: T2, cynomolgus BTLA on cells; assay: FACS on Expi293 cells overexpressing cynomolgus BTLA, AF647 anti-human IgG Fc detection
Procedure: as §2

[9] = target: T1, human BTLA (B- and T-lymphocyte …); assay: FACS, primary human T cells, donor 149, AF647 anti-human IgG Fc secondary antibody
Procedure: (§3) In FIGS. 4A-4D, primary T cells and B cells were isolated from human PBMC with EasySep™ Human T Cell Isolation Kit and B cell isolation kit ([…] Technologies: Vancouver, Canada). Isolated T cells or B cells were incubated with different concentrations of anti-BTLA parental antibodies. Anti-BTLA antibody binding to target cells was quantified with an AF647-conjugated anti-human IgG Fc 2nd antibody by FACS.

[10] = target: T1, human BTLA (B- and T-lymphocyte …); assay: FACS, primary human B cells, donor 149, AF647 anti-human IgG Fc secondary antibody
Procedure: as §3

[11] = target: T1, human BTLA (B- and T-lymphocyte …); assay: FACS, primary human T cells, donor 1709, AF647 anti-human IgG Fc secondary antibody
Procedure: as §3

[12] = target: T1, human BTLA (B- and T-lymphocyte …); assay: FACS, primary human B cells, donor 1709, AF647 anti-human IgG Fc secondary antibody
Procedure: as §3

[13] = target: T1, human BTLA (B- and T-lymphocyte …); assay: FACS, HEK293 cells overexpressing human BTLA, AF647 anti-human IgG Fc secondary antibody
cynomolgus BTLA on cells [14] = target: T2, cynomolgus BTLA on cells; assay: FACS, Expi293 cells overexpressing cynomolgus BTLA, AF647 anti-human IgG Fc secondary antibody
[15] = target: T1, human BTLA (B- and T-lymphocyte …); assay: cell-based or functional assay; remark: listed apart in the source
recombinant human BTLA = target: T3, recombinant human BTLA (human, UniProt Q7Z6A9 31-157, limits assumed); assay: ELISA on recombinant human BTLA
T3 construct: ELISA antigen; construct not described
T3 sequence (looked up): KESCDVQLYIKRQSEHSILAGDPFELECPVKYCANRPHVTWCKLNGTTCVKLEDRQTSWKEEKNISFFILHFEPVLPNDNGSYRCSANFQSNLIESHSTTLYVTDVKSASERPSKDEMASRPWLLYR

B1: HFB6-3hz25-hG4P-C109S (antibody, V domains shown)
VH: QVQLQESGPGLVKPSGTLSLTCADSGFSISDTYIHWVRQPPGKGLEWIGRIDPANGFTRYNPSLKSRVTISSDKSKNQASLKLSSVTAADTAVYYCAREDGYPYYTLDSWGQGTTVTVSS
VL: DIVMTQSPDSLALSLGERATINCKSSQSLLDVDGKTYLNWFQQKPGQPPKRLIYLVSKLDSGVPDRFSGSGSGTDFTLTISSVQAEDVAVYYCWQGTHFPRTFGQGTKLEIK
notes: Humanized variant of HFB6-3
CHO.TCRa.hHVEM/Jurkat.hBTLA.NFAT-luc (EC50 (nM)) [1]: 14.4 nM
EC50 [2]: 4.04 nM
EC50 (cynomolgus BTLA on cells [3]): 8.83 nM
IC50 [4]: 3.2 nM

B3: 22B3 (antibody, V domains shown)
VH: QVQLVQSGAEVKKPGASVKVSCKASGFSLSSYGVSWVRQAPGQGLEWMGAISYDGITYYASWAKSRVTMTRDTSTSTVYMELSSLRSEDTAVYYCARGDYYDDYVYVYALDIWGQGTLVTVSS
VL: EIVLTQSPGTLSLSPGERATLSCQASQSISTALAWYQQKPGQAPRLLIYAASTLASGIPDRFSGSGSGTDFTLTISRLEPEDFAVYYCQQGYSSSNLDNVFGGGTKVEIKR
EC50 (read off the curve) [13]: ~0.8 nM
EC50 (read off the curve) (cynomolgus BTLA on cells [14]): ~0.6 nM

Results, then the binder that gave them:

BTLA-HVEM blockade reporter assay, EC50 [5]: 12.5 nM
CHO.TCRa.hHVEM/Jurkat.hBTLA.NFAT-luc (EC50 (nM)) [1]: 7.9 nM
EC50 [2]: 3.21 nM
EC50 (cynomolgus BTLA on cells [3]): 5.7 nM
IC50 [4]: 2.69 nM
IC50 [6]: 7.71 nM
EC50 [7]: 1.45 nM
EC50 (cynomolgus BTLA on cells [8]): 0.823 nM
EC50 [9]: 3.7 nM
EC50 [10]: 0.44 nM
EC50 [11]: 7.3 nM
EC50 [12]: 0.28 nM
B2: HFB6-3 (antibody, V domains shown)
VH: EVQLQQSGAELVKPGASVKLSCTDSGFNIKDTYIHWVTQRPQQGLEWIGRIDPANGFTRYDPKFQGKATITSDTSSNTAYLQLSSLTSEDTAVYYCAREDGYPYYTLDCWGQGTSVTVSS
VL: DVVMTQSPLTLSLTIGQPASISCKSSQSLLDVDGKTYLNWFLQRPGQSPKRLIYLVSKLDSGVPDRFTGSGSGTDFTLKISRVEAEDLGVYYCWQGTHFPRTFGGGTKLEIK
notes: Mouse lead antibody; also called HFB6-3-hG4P; parental HFB6-3

BTLA-HVEM blockade reporter assay, EC50 [5]: 10.2 nM
Reporter EC50 [15]: 11.5 nM
EC50 (recombinant human BTLA): 2.35 nM
IC50 [6]: 5.45 nM
EC50 [7]: 2.34 nM
EC50 (cynomolgus BTLA on cells [8]): 0.614 nM
EC50 [9]: 1.4 nM
EC50 [10]: 0.8 nM
EC50 [11]: 2 nM
EC50 [12]: 0.28 nM
B4: HFB6-2 (antibody, V domains shown)
VH: EVQLQQSGAELVKPGASVKLSCTASGVNIKDTYMYWVKQRPEQGLEWIGRIDPANGYTRYDPKFQDKATVTADTSSNTAHLQLSSLTSEDTAVYYCAVNDGYFEYFDVWGAGTTVTVSS
VL: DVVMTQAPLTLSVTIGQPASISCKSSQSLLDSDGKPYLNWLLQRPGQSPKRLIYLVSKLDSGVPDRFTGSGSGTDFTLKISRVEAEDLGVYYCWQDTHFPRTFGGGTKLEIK
notes: Mouse lead antibody; also called HFB6-2-hG4P; parental HFB6-2
